Biological target: hCXCR1 (human) (UniProt P25024)
Assay: cell-based or functional assay

hCXCR1 (human), sequence (P25024 whole entry): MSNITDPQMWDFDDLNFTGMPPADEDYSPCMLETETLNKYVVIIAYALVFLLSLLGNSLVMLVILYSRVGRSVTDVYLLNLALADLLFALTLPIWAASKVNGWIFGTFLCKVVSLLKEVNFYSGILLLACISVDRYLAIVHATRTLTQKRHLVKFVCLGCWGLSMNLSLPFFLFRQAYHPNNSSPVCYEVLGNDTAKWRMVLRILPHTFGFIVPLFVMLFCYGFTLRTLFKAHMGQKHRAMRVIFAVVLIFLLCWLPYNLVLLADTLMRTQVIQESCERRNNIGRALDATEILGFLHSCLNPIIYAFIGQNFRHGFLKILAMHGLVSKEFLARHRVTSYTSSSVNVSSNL

Which EC50, agonist activity in an Aequorin assay does the source give for “biotinIL-8 (6-78) (from UniProt P10145 28-99) (ligand)” here?
Its EC50, agonist activity in an Aequorin assay is 6.1 nM.

How did the EC50, Aequorin assay turn out when “recombinant native IL-8 (from UniProt P10145 28-99)” was run?
The EC50, Aequorin assay was 4.2 nM.

Source: patent publication EP2718312B1
